The source of these data is patent US7968306B2 (Wisconsin Alumni Research Foundation, priority 2002, dated 2011).

The target in data set [1] is PLC (Clostridium perfringens) (Clostridium perfringens, UniProt P0C216).
The next data set has as its target porcine pancreatic PLA2 (Sus scrofa, UniProt P00592). Briefly: Continuous fluorescent assay of PLA2 (Bis-BODIPY FL C11-PC labeled DOPC-PG liposomes). The conditions noted are these: for loss of activity after treating the protein in boiling water: boiling water for 5 min; for TFI: 5 ng PLA2, 37° C., 2 min; for TFI / % of control: truncated α1-AT 6 μg, intact α1-AT 20 μg, albumin 20 μg.

Data set [2] concerns the target T1, porcine pancreatic lipase (Sus scrofa, UniProt P00591).
T1 construct: purchased Sigma; host or cells: porcine pancreas
T1 sequence (P00591 1-450): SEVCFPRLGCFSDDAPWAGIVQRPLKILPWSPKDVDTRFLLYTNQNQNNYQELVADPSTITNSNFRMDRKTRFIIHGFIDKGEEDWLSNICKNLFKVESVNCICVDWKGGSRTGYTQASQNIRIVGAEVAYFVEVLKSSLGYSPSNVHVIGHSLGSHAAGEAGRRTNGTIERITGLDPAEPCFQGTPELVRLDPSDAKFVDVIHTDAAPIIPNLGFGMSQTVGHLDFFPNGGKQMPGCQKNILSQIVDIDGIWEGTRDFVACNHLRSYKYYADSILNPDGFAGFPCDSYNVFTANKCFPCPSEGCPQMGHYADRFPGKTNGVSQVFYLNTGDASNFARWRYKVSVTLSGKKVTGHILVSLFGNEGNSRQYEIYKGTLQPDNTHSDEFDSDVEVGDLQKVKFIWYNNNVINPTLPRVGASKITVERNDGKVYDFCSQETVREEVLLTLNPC
Briefly: Fluorescent assay of lipase after PLC reaction. Type of data set: biochemical. The conditions noted are these: FIG. 42.

The target of a further data set is T2, pancreatic PLA2 (Sus scrofa, UniProt P00592).
T2 construct: purchased Sigma Chemical (St. Louis, Mo.); host or cells: porcine pancreas
Briefly: Radioactive assay of PLA2 (14C-labeled liposomes). Type of data set: biochemical, porcine. The conditions noted are these: 10 μg rabbit lung annexin, FIG. 25. The protocol:
Radioactive assay of PLA2. […] In some tests, 25-100 μg of CF BALF proteins, or 10 μg of rabbit lung annexin I or annexin VIII or both were added to the reaction mixture as specified. The reaction was carried out at room temperature for 30 sec and stopped by adding 2 ml of chloroform:methanol (1:2 vol) followed by addition of 0.4 ml water, and 10 μl of egg PC and lysoPC (20 nmol) which was used as carrier. The test tube was stirred using a Vortex. Lipids were extracted by adding additional 0.6 ml water and 0.6 ml chloroform. After agitating on a vortex, the mixture was centrifuged at 2,000 rpm for 10 min. The chloroform layer was withdrawn and transferred to a new test tube using a Pasteur pipette. Chloroform was evaporated to dryness under a flow of nitrogen. PC and lysoPC were isolated by the methods of silica gel thin-layer chromatography (TLC) using a developing solvent system of chloroform/methanol/water in a ratio of 65/45/5 as described previously (41). Lipids on the TLC plate were visualized by exposure of the TLC plate in an iodine tank. […] Radioactivity in the vial was determined by using a beta scintillation counter. PLA2 activity was expressed as either decrease in PC radioactivity or increase in fatty acid or lysoPC radioactivity as described previously (41).

Where [3] appears, read: with lysoPC (9 nmol), control LysoPC + PLA2.
Setting [4] is: without lysoPC, control PLA2 (5 ng).

porcine pancreatic PLA2, sequence (P00592 23-146): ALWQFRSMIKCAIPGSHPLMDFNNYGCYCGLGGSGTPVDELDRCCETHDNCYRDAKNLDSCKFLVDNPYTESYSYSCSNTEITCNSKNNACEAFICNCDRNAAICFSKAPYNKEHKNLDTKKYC
T2 sequence (P00592 23-146): as above

Turning to “Human serum α1-AT: human serum α1-AT obtained from Sigma Chemical Co.”, the “effect on PLC activity” value in data set [1] is given as “inhibited PLC activity”. The “effect of commercial α1-AT on PLA2 activity” value with porcine pancreatic PLA2 (Sigma product, FIG. 44A) is listed as “stimulated PLA2 activity”. Also, the “loss of activity after treating the protein in boiling water” value (shortened to “loss of activity”) with porcine pancreatic PLA2 was “not affected”.
“Intact α1-AT: intact 52 kDa human serum α1-AT; serum PLA2-s (protein-II) purified from human serum”: the “effect on PLC activity” value in data set [1] was “effectively inhibited PLC activity”. Further, the “effect on lipase activity” value in data set [2] was “no effect on the lipase activity”. Moreover, the “loss of activity” value with porcine pancreatic PLA2 is reported as “less than 20%”. The “effect on PLA2 activity” value in the data set with porcine pancreatic PLA2 (wide range of protein concentrations) was “exhibited only PLA2-stimulating activity”. The results for the TFI with porcine pancreatic PLA2 (with lysoPC (9 nmol)) and in the data set with porcine pancreatic PLA2 (without lysoPC) were 29.81 and 68.96, respectively. Also, the figures for the “% of control” value with porcine pancreatic PLA2 (setting [3]) and with porcine pancreatic PLA2 (setting [4]) were 151.4% and 183.3%, respectively.

B1: Truncated α1-AT: 48 kDa truncated human α1-AT (16His to 357Pro) isolated from heat-treated CF BALF; PLA2 stimulator (protein, listed as Homo sapiens)
chain: HDQDHPTFDKITPDLAEFAFSLYRQLAHQSDSTNIFFSPVSIAAAFAMLSLGAKGDTHDEILEGLNFNLTEIPEAQIHEGFQELLRTLNQPDSQLQLTTGNGLFLSEFLKLFDKFLEDFKKLYHSEAFTVNFGTDEEAKKQINDYVEKGTQGKIVNLVKELDRDTVFALVNYIFFKGKWERPFEVKDTEEEDFHVDQVTTVKVPMMKRLGMFNIQHCKKLSSWVLLMKYLGNATAIFFLPDEGKLQHLENELTHDIITKFLENEDRRSASLHLPKLSITGTYDLKSVLGQLGITKVFSNGADLSGVTEEAPLKLSKAVHKAVLTIDEKGTEAAGAMFLEAIP
Turning to B1, in data set [1], the “effect on PLC activity” value was “effectively inhibited PLC activity”. The “effect on lipase activity” value in data set [2] is “no effect on the lipase activity”. Moreover, the “effect of isolated PLA2-s on pancreatic PLA2 activity” value with porcine pancreatic PLA2 (6 μg PLA2-s, FIG. 29B) is reported as “exhibited PLA2-stimulating activity”. Moreover, the “effect on PLA2 activity with 50% PC-50% PG liposomes” value with porcine pancreatic PLA2 (6 μg truncated α1-AT, 37° C.) is listed as “markedly stimulated”. In addition, the “effect on PLA2 activity with 90% PC-10% PG liposomes” value with porcine pancreatic PLA2 (6 μg truncated α1-AT, 37° C.) was “did not significantly enhance the PLA2 activity”. Further, the “effect on PLA2 activity with 100% PC liposomes” value in the data set with porcine pancreatic PLA2 (6 μg truncated α1-AT, 37° C.) is recorded as “did not stimulate PLA2 activity”. The “loss of activity” value with porcine pancreatic PLA2 is “heat stable”. Further, the TFI in the data set with porcine pancreatic PLA2 (with lysoPC (9 nmol)) is given as 31.82; in the data set with porcine pancreatic PLA2 (without lysoPC), 57.23. The “% of control” value with porcine pancreatic PLA2 (setting [3]) was 161.6%; with porcine pancreatic PLA2 (setting [4]) it was 152.1%.

B2: annexin VIII: native rabbit lung annexin VIII protein (protein, UniProt O97529 1-327, looked up)
Annexin A8: MAWWKAWVEQEGVTVKGSPHFNPVPDAETLYKAMKGIGTNEQAIIDVLTRRSSAQRQQIAKSFKAQFGSDLTETLKSELSGKFERLIVALMYPPYRYEAKELHDAMKGLGTKEGVIIEILASRTKNQLQEIMKAYEEDYGSSLEEDIQADTSGYLERILVCLLQGSRDDVTGFVDPGLALQDAQDLYAAGEKICGTDEMKFITILCTRSARHLMRVFEEYEKIANKSIEDSIKSETHGSLEEAMLTIVKCTRNLHCYFAERLHYAMKGAGTLDGTLIRNIVSRSEIDLNLIKGHYKKMYGKTLSSMIMEDTSGDYKNALLSLVGSDP
In the case of B2, the “inhibition of PLA2 and PLA2-s activities” value in the data set with pancreatic PLA2 was “significantly inhibited”.

B3: annexin I: native rabbit lung annexin I protein (protein, UniProt P51662 2-346, looked up)
Annexin A1: AMVSEFLKQAWFIDNEEQDYINTVKTYKGGPGSAVSPYPAFNPSSDVAALHQAIMVKGVDEATIIDILTKRNNAQRQQIKAAYLQEKGKPLDEVLKKALTGHLEEVVLALLKTPAQFDADELRAAMKGLGTDEDTLIEILASRNNKEIREINRVYREELKRDLAKDIASDTSGDFQKALLSLAKGDRSEDFGVNEDLADTDARALYEAGERRKGADVNVFTTILTTRSYLHLRRVFQKYSKYSQHDMNKVLDLELKGDIEKCLTAIVQCATCKPAYFAEKLYQAMKGAGTRHKALIRIMVSRSEVDMNDIKAFYQKKYGVSLCQAILDETKGDYEKILVALCGGN
As for B3, the “inhibition of PLA2 and PLA2-s activities” value in the data set with pancreatic PLA2 was “significantly inhibited”. Further, the “inhibition of PLA2 activity and of the effect of truncated α1-AT on PLA2 stimulation” value with porcine pancreatic PLA2 (fluorescent assay, FIG. 46B) is listed as “markedly inhibited”.
